Measurements taken from patent publication US20240228568A1 (CENTRO DE INGENIER A GEN TICA Y BIOTECNOLOG A, published 2024).
Where no end group is shown, it is not given here. [ ]: non-standard residue; d: D form.

T1: IL-15 receptor subunit on CTLL-2 cells
T1 sequence (Q60819 whole entry, species assumed, looked up): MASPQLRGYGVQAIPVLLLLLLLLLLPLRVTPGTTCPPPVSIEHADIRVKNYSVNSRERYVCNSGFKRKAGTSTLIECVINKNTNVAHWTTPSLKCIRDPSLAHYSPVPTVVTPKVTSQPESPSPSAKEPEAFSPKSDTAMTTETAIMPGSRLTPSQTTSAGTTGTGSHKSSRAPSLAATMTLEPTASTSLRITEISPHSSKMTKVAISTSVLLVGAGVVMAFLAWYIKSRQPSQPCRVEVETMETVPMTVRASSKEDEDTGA


Assays:
[1] = target: T1, IL-15 receptor subunit on CTLL-2 cells; assay: cell-based or functional assay
[2] = target: T1, IL-15 receptor subunit on CTLL-2 cells; assay: cell-based or functional assay; remark: listed apart in the source

| Binder | IC50 in the CTLL-2 cell proliferation assay [1] | antagonist effect on IL-15-induced proliferation, fold against Peptide 1 [2] | antagonist effect on IL-15-induced proliferation, fold against Peptide 5 [2] |
| --- | --- | --- | --- |
| KVTAMKCFLL (not fully specified (C-terminus)) [Peptide 1] | 130 µM | – | – |
| KVT[dA]MKCFLL-NH2 [Peptide 5] | 28 µM | – | – |
| KVT[dA]MKCFLL-NH2 (also: disulfide-linked homodimer through the Cys) [Peptide 12] | 8 µM | 16 times | 3 times |
